From US20240384250A1, “FIBROBLAST GROWTH FACTOR 23 MODULATING COMPOUNDS” (THE UAB RESEARCH FOUNDATION, priority 2021, published 2024)
Entries after “also recorded” stand apart in the source; their conditions may differ.

T1: FGF23 binding to FGFR1c (Homo sapiens, UniProt P11362+Q9GZV9)
T1 construct: Fc-coupled FGFR ectodomains were immobilized on protein A/G beads; purchased R&D Systems 2604FG025/CF or 2629FG025/CF; 658FR050
T1 sequence (Q9GZV9 25-251): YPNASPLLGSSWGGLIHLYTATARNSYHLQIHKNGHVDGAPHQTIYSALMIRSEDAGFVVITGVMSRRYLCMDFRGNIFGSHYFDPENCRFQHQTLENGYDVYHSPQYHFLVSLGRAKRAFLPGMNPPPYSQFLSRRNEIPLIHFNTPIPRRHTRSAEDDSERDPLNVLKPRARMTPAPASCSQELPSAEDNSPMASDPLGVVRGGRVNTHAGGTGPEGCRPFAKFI
T1 sequence (P11362 22-376 limits assumed): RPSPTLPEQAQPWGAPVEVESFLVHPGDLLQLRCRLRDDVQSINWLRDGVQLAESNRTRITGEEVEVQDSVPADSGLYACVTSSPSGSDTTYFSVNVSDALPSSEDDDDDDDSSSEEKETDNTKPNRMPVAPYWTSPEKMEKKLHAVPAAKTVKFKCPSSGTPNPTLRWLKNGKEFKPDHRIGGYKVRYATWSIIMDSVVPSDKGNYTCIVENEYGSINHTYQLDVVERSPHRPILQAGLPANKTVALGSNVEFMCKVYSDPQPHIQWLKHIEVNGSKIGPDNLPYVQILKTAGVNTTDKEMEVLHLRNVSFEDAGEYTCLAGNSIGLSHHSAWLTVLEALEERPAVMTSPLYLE

T2: FGF23 binding to FGFR4 (Homo sapiens, UniProt P22455+Q9GZV9)
T2 construct: Fc-coupled FGFR ectodomains were immobilized on protein A/G beads; purchased R&D Systems 2604FG025/CF or 2629FG025/CF; 685FR050
T2 sequence (Q9GZV9 25-251): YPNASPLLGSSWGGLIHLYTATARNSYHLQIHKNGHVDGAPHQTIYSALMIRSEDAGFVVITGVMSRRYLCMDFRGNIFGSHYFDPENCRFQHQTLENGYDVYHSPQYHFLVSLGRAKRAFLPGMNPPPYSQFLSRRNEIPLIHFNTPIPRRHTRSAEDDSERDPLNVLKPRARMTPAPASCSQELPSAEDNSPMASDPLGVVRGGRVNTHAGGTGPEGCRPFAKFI
T2 sequence (P22455 22-369 limits assumed): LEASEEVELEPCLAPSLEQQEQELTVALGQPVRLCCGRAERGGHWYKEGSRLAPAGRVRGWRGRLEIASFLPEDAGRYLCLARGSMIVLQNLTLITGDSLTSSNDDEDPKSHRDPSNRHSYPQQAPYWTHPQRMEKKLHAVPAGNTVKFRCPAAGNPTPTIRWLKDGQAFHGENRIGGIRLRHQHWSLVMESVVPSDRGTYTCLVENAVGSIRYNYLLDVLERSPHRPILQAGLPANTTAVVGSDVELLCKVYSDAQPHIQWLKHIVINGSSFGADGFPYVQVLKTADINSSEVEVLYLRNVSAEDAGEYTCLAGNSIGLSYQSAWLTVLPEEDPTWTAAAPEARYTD

T3: FGF23 binding to FGFR3c (Homo sapiens, UniProt P22607+Q9GZV9)
T3 construct: Fc-coupled FGFR ectodomains were immobilized on protein A/G beads; purchased R&D Systems 2604FG025/CF or 2629FG025/CF; 766FR050
T3 sequence (Q9GZV9 25-251): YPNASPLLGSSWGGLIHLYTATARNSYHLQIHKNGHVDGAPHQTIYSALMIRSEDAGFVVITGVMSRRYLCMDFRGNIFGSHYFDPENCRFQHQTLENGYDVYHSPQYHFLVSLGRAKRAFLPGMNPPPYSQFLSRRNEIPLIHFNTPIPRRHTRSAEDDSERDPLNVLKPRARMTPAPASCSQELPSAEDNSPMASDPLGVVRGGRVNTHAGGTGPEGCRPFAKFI
T3 sequence (P22607 23-375 limits assumed): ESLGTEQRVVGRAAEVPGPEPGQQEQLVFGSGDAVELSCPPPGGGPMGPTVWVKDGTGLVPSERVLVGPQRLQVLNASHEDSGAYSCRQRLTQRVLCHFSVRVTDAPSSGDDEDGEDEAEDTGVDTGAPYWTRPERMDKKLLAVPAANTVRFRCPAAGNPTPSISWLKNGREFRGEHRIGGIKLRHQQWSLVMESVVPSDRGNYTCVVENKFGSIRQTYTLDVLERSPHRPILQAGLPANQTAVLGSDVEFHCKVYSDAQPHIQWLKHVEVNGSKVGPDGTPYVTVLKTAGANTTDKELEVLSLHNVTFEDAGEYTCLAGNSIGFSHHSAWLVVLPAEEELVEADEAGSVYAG


Experiments:
Assay in all cases: Pull-down of FGF23 with Fc-FGFR on protein A/G beads with sKL, heparin or PBS
Settings in all cases: with heparin, or alone
FGF23 binding to FGFR1c = molecular target: T1, FGF23 binding to FGFR1c
Procedure: (§1) To study the interaction between Fc-tagged FGFR isoforms (Fc-FGFR), FGF isoforms, and sKL, immunoprecipitation studies were conducted. Protein A beads (6501, BioVision) and protein G beads (6511, BioVision) were used at 25 μl of a 50% stock slurry per sample in a total bead volume of 50 μl. Beads were washed 5× in activity buffer (50 mM Tris [pH 7.4], 200 mM NaCl, 0.01% Tween 20). Bead spin-down assays were all performed for 2 minutes at 5000 g. Beads were resuspended in 1 ml of activity buffer in a 1.5-ml snap cap tube. One microgram of Fc-FGFR1 to 4 was incubated with the beads for 1 hour on a bead rotator. Control samples were incubated with 2 μg of anti-FGF antibody instead of Fc-FGFR. Beads were then pelleted at 5000 g for 2 minutes and washed 5× with activity buffer. Beads were resuspended and incubated with different combinations of 500 ng of FGF, 1 μg of sKL, 1.6 United States Pharmacopeia (USP) units of heparin, or phosphate-buffered saline (PBS). Beads were incubated for 1 hour on a tube rotator, and beads were pelleted and washed as before. One hundred microliters of 1× Laemmli sample buffer (1610737, Bio-Rad) with 1.42 M 2-mercaptoethanol was added, and samples were boiled for 5 minutes. Samples were analyzed using SDS-PAGE and Western blotting.
(§2) The sample (20 μl) was loaded onto Mini-PROTEAN TGX Precast Gel 4-20% for experiments with <9 samples (4568094, Bio-Rad) or Criterion TGX Precast Gel 4-20% (5678094, Bio-Rad) for experiments with >9 samples. Gels were run in 1× Tris/Glycine/SDS buffer (1610732, Bio-Rad) at 150 V and stopped when the sample dye reached the end of the gel. Gels were removed and electrotransferred via a semi-dry cassette (1703940, Bio-Rad) in I× Tris/Glycine buffer (1610734, Bio-Rad) with 20% methanol. Gels were transferred onto polyvinylidene diflouride membranes (IPVH00010, Millipore) at 20 V for 1 hour. Membranes were then blocked in 5% dried milk with 0.5% Tween 20 diluted in Tris-buffered saline (TBST; pH 7.5) for 1 hour and probed with antibodies against specific antigens at 1:1000 in TBST with 5% dried milk. Blots were washed 3× for 5 minutes in TBST and probed with HRP-coupled secondary antibodies against specific species at 1:10,000 in TBST with 5% dried milk. Membranes were imaged on the SRX-101A X-ray film developer (Konica Minolta).

FGF23 binding to FGFR4 = molecular target: T2, FGF23 binding to FGFR4
Procedure: as §1, §2

FGF23 binding to FGFR3c = molecular target: T3, FGF23 binding to FGFR3c
Procedure: as §1, §2

Row | FGF23 co-precipitation with Fc-FGFR4 (FGF23 binding to FGFR4) | FGF23 co-precipitation with Fc-FGFR3c (FGF23 binding to FGFR3c) | Molecule | FGF23 co-precipitation with Fc-FGFR1c (FGF23 binding to FGFR1c)
1 | could coprecipitate sKL and FGF23 | could coprecipitate sKL and FGF23 | sKL: recombinant soluble α-klotho ectodomain, mouse aa 35-982 and human aa 34-981, FLAG- or Strep/His-tagged, purified from HEK293 cells (protein, left off: small tags and cut ends, recombinant soluble α-klotho ectodomain, mouse aa 35-982 and human aa 34-981, FLAG- or Strep/His-tagged, purified from HEK293 cells) EPGDGAQTWARFSRPPAPEAAGLFQGTFPDGFLWAVGSAAYQTEGGWQQHGKGASIWDTFTHHPLAPPGDSRNASLPLGAPSPLQPATGDVASDSYNNVFRDTEALRELGVTHYRFSISWARVLPNGSAGVPNREGLRYYRRLLERLRELGVQPVVTLYHWDLPQRLQDAYGGWANRALADHFRDYAELCFRHFGGQVKYWITIDNPYVVAWHGYATGRLAPGIRGSPRLGYLVAHNLLLAHAKVWHLYNTSFRPTQGGQVSIALSSHWINPRRMTDHSIKECQKSLDFVLGWFAKPVFIDGDYPESMKNNLSSILPDFTESEKKFIKGTADFFALCFGPTLSFQLLDPHMKFRQLESPNLRQLLSWIDLEFNHPQIFIVENGWFVSGTTKRDDAKYMYYLKKFIMETLKAIKLDGVDVIGYTAWSLMDGFEWHRGYSIRRGLFYVDFLSQDKMLLPKSSALFYQKLIEKNGFPPLPENQPLEGTFPCDFAWGVVDNYIQVDTTLSQFTDLNVYLWDVHHSKRLIKVDGVVTKKRKSYCVDFAAIQPQIALLQEMHVTHFRFSLDWALILPLGNQSQVNHTILQYYRCMASELVRVNITPVVALWQPMAPNQGLPRLLARQGAWENPYTALAFAEYARLCFQELGHHVKLWITMNEPYTRNMTYSAGHNLLKAHALAWHVYNEKFRHAQNGKISIALQADWIEPACPFSQKDKEVAERVLEFDIGWLAEPIFGSGDYPWVMRDWLNQRNNFLLPYFTEDEKKLIQGTFDFLALSHYTTILVDSEKEDPIKYNDYLEVQEMTDITWLNSPSQVAVVPWGLRKVLNWLKFKYGDLPMYIISNGIDDGLHAEDDQLRVYYMQNYINEALKAHILDGINLCGYFAYSFNDRTAPRFGLYRYAADQFEPKASMKHYRKIIDSNGFPGPETLERFCPEEFTVCTECSFFHTRKS | could coprecipitate sKL and FGF23; also recorded: complex formation with FGFR1c
2 | no FGF23 binding was detected | no FGF23 binding was detected | FGF23: recombinant fibroblast growth factor 23 protein from R&D Systems (protein) YPDTSPLLGSNWGSLTHLYTATARTSYHLQIHRDGHVDGTPHQTIYSALMITSEDAGSVVITGAMTRRFLCMDLHGNIFGSLHFSPENCKFRQWTLENGYDVYLSQKHHYLVSLGRAKRIFQPGTNPPPFSQFLARRNEVPLLHFYTVRPRRHTRSAEDPPERDPLNVLKPRPRATPVPVSCSRELPSAEEGGPAASDPLGVLRRGRGDARGGAGGADRCRPFPRFV | no FGF23 binding was detected
